Target: discoidin domain receptor 1 (DDR1) (human (endogenous in primary human umbilical artery SMCs)) (UniProt Q08345)
Experiment: atomic force microscopy

Sequence of Collagen type I (Corning), P02454 152-1207; P02466 86-1125 (ligand) (P02454 152-1207): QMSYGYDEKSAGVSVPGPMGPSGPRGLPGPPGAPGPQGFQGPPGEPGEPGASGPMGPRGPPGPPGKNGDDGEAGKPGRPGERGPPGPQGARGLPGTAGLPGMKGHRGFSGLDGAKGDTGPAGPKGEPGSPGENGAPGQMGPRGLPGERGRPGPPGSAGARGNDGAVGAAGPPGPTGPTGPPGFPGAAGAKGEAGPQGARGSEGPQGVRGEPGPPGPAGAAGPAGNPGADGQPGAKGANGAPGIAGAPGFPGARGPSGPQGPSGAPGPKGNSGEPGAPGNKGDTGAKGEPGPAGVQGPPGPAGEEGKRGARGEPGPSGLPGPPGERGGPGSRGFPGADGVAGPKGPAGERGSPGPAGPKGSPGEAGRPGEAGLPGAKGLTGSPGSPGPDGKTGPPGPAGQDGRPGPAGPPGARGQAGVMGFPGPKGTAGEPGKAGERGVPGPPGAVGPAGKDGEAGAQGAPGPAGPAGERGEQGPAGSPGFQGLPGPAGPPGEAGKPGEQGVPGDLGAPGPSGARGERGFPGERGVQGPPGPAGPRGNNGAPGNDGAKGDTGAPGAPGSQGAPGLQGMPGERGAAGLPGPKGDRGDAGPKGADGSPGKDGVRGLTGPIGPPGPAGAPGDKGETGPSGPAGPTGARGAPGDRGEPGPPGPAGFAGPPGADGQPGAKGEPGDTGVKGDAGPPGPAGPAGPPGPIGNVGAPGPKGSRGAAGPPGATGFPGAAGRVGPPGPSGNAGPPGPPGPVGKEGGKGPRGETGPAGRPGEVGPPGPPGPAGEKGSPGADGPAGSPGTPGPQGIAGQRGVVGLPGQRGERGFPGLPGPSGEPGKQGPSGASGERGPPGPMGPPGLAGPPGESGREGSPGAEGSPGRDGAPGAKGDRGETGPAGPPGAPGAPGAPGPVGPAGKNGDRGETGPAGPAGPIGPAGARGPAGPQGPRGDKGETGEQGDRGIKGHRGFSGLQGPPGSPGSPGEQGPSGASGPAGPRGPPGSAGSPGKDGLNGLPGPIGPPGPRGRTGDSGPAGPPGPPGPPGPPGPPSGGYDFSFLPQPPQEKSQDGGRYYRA
Sequence of Collagen type I (Corning), P02454 152-1207; P02466 86-1125 (ligand) (P02466 86-1125): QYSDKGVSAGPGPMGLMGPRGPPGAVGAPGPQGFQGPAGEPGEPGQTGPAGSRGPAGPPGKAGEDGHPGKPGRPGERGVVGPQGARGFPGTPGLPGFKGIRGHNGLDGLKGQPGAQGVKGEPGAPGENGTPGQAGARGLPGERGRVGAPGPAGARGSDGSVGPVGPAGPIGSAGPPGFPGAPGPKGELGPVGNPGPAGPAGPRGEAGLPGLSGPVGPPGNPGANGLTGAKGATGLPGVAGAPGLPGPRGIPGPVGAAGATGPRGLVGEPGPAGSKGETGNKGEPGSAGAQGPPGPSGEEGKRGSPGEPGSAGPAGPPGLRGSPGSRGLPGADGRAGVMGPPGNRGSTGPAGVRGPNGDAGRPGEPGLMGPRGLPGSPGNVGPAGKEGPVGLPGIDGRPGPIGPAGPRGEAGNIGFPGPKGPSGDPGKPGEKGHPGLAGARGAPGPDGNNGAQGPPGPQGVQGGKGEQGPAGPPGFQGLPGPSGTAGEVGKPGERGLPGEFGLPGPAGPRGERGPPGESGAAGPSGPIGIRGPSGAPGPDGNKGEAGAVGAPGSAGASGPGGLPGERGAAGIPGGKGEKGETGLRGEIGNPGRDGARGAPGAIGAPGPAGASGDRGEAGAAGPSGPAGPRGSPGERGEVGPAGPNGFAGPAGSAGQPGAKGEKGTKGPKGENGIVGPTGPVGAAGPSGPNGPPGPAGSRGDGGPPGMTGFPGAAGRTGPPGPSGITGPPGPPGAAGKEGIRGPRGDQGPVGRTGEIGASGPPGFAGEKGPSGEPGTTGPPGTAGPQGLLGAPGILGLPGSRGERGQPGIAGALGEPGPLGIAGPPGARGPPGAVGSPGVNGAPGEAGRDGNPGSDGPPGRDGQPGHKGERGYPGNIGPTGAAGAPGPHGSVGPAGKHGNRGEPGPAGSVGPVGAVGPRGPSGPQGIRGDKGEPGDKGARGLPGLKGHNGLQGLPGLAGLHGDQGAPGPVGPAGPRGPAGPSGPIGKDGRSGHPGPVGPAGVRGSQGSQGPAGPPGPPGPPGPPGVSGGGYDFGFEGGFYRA
Sequence of discoidin domain receptor 1 (DDR1) (human (endogenous in primary human umbilical artery SMCs)) (Q08345 19-913): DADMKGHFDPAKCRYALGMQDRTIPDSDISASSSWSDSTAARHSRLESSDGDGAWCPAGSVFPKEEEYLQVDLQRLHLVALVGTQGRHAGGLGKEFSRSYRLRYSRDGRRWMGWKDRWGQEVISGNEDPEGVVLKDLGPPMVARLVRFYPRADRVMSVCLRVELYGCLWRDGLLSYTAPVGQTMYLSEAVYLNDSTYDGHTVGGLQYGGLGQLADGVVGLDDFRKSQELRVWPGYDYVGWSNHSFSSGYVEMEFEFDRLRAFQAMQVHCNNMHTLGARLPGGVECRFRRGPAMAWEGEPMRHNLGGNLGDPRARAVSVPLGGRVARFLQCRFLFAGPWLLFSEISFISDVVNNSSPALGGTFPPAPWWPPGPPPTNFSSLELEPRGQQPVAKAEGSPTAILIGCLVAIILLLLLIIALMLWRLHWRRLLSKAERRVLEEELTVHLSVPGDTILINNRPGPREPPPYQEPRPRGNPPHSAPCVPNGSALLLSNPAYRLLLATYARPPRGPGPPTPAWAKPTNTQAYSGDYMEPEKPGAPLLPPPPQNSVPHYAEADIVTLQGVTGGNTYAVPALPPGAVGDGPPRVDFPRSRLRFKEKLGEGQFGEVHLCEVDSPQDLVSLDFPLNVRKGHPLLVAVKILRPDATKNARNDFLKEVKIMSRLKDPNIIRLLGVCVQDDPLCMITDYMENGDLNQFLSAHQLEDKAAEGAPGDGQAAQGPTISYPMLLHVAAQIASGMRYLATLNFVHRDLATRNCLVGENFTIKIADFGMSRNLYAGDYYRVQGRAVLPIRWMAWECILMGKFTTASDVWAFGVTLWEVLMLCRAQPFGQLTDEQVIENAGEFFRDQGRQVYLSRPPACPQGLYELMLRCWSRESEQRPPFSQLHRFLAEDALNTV

adhesion probability (cells on soft gels): 18.3%
adhesion probability (cells on stiff gels): 32.4%
Substance: Collagen type I (Corning), P02454 152-1207; P02466 86-1125 (ligand)

— paper PMC8964982
